Source: the supplement of paper PMC9876800

System: peptide library, one residue held at a place counted from the S/T acceptor
Assay: relative phosphorylation of the sub-library (ratio to the mean residue at this position); human; higher = residue favoured
Procedure, shortened: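 Spots on streptavidin membranes were phosphorimaged and quantified by densitometry to measure phosphorylation of biotinylated degenerate peptide sub-libraries by purified recombinant kinases, human or orthologue constructs. The reactions ran in 384-well plates for 90 min under kinase-specific conditions, with peptides at 50 μM and 50 μM ATP spiked with γ-32P-ATP. Relative sub-library phosphorylation is the ratio to the mean residue at that position.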

Sequence of TSSK1B, construct: Full length (Q9BXA7 whole entry, looked up): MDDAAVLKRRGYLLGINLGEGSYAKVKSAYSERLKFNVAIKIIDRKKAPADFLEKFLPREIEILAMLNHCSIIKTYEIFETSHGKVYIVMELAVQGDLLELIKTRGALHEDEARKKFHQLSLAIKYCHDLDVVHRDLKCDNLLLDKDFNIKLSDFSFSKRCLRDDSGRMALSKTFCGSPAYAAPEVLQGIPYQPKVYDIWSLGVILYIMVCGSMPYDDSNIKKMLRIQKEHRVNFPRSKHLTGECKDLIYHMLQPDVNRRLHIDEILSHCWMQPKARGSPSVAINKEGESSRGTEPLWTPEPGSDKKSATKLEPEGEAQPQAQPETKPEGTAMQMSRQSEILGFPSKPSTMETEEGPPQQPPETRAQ

PKN3, construct: Full length (from UniProt Q6P5Z2)
relative phosphorylation
Details | at +1 | at +2 | at +3 | at +4 | at -1 | at -2 | at -3 | at -4 | at -5
A fixed | 0.497 | 0.811 | 0.681 | 0.955 | 0.874 | 1.12 | 0.679 | 1.07 | 0.92
D fixed | 0.614 | 0.652 | 0.765 | 0.967 | 1.01 | 0.684 | 0.44 | 0.823 | 0.801
E fixed | 0.554 | 0.784 | 0.848 | 0.887 | 1.06 | 0.791 | 0.504 | 1.12 | 0.719
F fixed | 4.24 | 0.552 | 0.883 | 0.671 | 0.682 | 0.703 | 0.562 | 0.717 | 0.839
G fixed | 0.625 | 0.52 | 0.918 | 1.13 | 1.12 | 1.21 | 0.898 | 1.08 | 0.973
H fixed | 0.667 | 1.55 | 1.32 | 1.3 | 1.21 | 1.12 | 1.06 | 1.09 | 1.12
I fixed | 1.14 | 0.724 | 0.782 | 0.714 | 0.444 | 0.511 | 0.427 | 0.776 | 1.18
K fixed | 0.802 | 1.67 | 1.2 | 1.64 | 1.55 | 1.75 | 1.54 | 1.55 | 1.1
L fixed | 0.951 | 0.864 | 0.894 | 0.738 | 0.77 | 0.569 | 0.413 | 0.775 | 1.34
M fixed | 1.83 | 0.728 | 0.833 | 0.858 | 0.854 | 0.771 | 1.28 | 1.07 | 0.97
N fixed | 0.78 | 1.17 | 1 | 1.19 | 1.48 | 1.33 | 0.713 | 1.25 | 1.06
P fixed | 0.426 | 0.432 | 0.736 | 1.36 | 1.56 | 0.721 | 0.899 | 0.924 | 0.955
Q fixed | 0.88 | 0.806 | 1.11 | 1.15 | 1.36 | 1.34 | 0.786 | 0.922 | 0.789
R fixed | 0.74 | 3.4 | 1.4 | 1.02 | 1.12 | 2.24 | 5.22 | 1.4 | 1.5
V fixed | 0.892 | 0.753 | 0.807 | 0.716 | 0.558 | 0.711 | 0.496 | 0.801 | 1.07
W fixed | 0.606 | 0.683 | 1.32 | 0.883 | 0.524 | 0.782 | 0.517 | 0.85 | 0.828
Y fixed | 0.751 | 0.898 | 1.49 | 0.823 | 0.812 | 0.646 | 0.561 | 0.786 | 0.833
pThr fixed | 0.747 | 0.671 | 0.69 | 0.944 | 0.866 | 0.755 | 0.532 | 0.645 | 0.581
pTyr fixed | 0.695 | 0.952 | 0.825 | 0.807 | 0.585 | 0.662 | 0.902 | 0.676 | 0.781

TSSK1B, construct: Full length (from UniProt Q9BXA7)
relative phosphorylation
Details | at +1 | at +2 | at +3 | at +4 | at -1 | at -2 | at -3 | at -4 | at -5
A fixed | 0.896 | 1.04 | 0.82 | 0.786 | 1.15 | 1.84 | 0.918 | 1.21 | 1.05
D fixed | 0.619 | 0.465 | 1.55 | 0.621 | 0.453 | 0.495 | 0.378 | 0.625 | 0.389
E fixed | 0.69 | 0.497 | 0.747 | 0.452 | 0.506 | 0.474 | 0.532 | 0.883 | 0.371
F fixed | 1.1 | 0.97 | 1.09 | 1.33 | 0.617 | 0.565 | 0.497 | 0.643 | 0.99
G fixed | 0.884 | 1.4 | 0.809 | 0.639 | 1.08 | 1.2 | 1.08 | 1.29 | 0.635
H fixed | 1.1 | 1.99 | 1.29 | 0.768 | 0.957 | 0.981 | 1.01 | 1.23 | 0.57
I fixed | 0.854 | 1.56 | 0.66 | 2.06 | 0.502 | 0.661 | 0.421 | 0.677 | 1.61
K fixed | 1.43 | 0.385 | 0.945 | 0.621 | 2.08 | 2.53 | 2.55 | 2.11 | 0.612
L fixed | 1.03 | 1.53 | 0.758 | 2.43 | 0.683 | 0.423 | 0.418 | 0.73 | 2.77
M fixed | 1.23 | 1.21 | 0.953 | 1.9 | 0.885 | 0.681 | 0.607 | 1.12 | 1.14
N fixed | 1.05 | 0.881 | 1.92 | 0.793 | 0.98 | 1.22 | 0.887 | 0.889 | 0.477
P fixed | 0.176 | 0.61 | 0.392 | 0.702 | 1.96 | 0.794 | 1.3 | 0.592 | 1.26
Q fixed | 1.38 | 0.997 | 1.07 | 0.683 | 1.17 | 1.29 | 0.858 | 0.864 | 0.783
R fixed | 1.54 | 0.586 | 0.953 | 0.529 | 1.98 | 1.72 | 3.76 | 1.81 | 1.09
V fixed | 0.935 | 1.07 | 0.632 | 1.34 | 0.59 | 1.11 | 0.545 | 0.797 | 1.76
W fixed | 0.893 | 0.845 | 1.56 | 0.719 | 0.601 | 0.401 | 0.465 | 0.73 | 0.734
Y fixed | 1.19 | 0.96 | 0.851 | 0.62 | 0.817 | 0.623 | 0.772 | 0.805 | 0.767
pThr fixed | 0.709 | 0.515 | 0.365 | 0.424 | 0.191 | 0.303 | 0.574 | 0.596 | 0.457
pTyr fixed | 0.793 | 0.437 | 0.381 | 0.396 | 0.445 | 0.326 | 0.424 | 0.432 | 0.65
